These results are taken from patent publication US11814435B2, “Therapeutic antibodies and their uses” (PFIZER INC., priority 2015, dated 2023).

The test system of one test is cyBCMA. The experiment in a line: Kinetics and affinity of cyBCMA/human IgG interactions by SPR (Bio-Rad Proteon XPR36). It counts as binding, cynomolgus. The following applies: 37° C. A general note: SPR reads the build-up and loss of mass on a sensor chip optically.
For a further test, the target named is T1, hBCMA (human BCMA) (Homo sapiens, UniProt Q02223).
T1 sequence (Q02223 1-184): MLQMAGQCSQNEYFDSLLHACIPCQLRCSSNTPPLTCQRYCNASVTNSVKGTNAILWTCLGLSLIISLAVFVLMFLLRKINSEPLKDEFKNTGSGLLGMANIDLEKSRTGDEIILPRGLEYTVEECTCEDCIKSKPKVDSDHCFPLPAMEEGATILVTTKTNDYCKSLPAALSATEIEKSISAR
Put plainly: Kinetics and affinity of hBCMA/human IgG interactions by SPR (Bio-Rad Proteon XPR36). In kind it is binding. The following applies: huBCMA, 37° C. The procedure, abridged:
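Captured here: binding of soluble BCMA to covalently coupled anti-BCMA IgGs, measured at 37° C. or 25° C. with a five-point single-cycle series (top 50 nM, fivefold dilution) and extended 2 h off-rate phase, analyzed by a 1:1 mass-transport-corrected model.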

B1: L3.PY/L3.KY/H2.QL: anti-BCMA antibody (antibody, V domains shown)
VH: EVQLLESGGGLVQPGGSLRLSCAASGFTFGSYAMTWVRQAPGKGLEWVSAISGSGGNTFYADQLKGRFTISRDNSKNTLYLQMNSLRAEDTAVYYCARVSPIASGMDYWGQGTLVTVSS
VL: EIVLTQSPGTLSLSPGERATLSCRASQSVSSSYLAWYQQKPGQAPRLLIYGASSRATGIPDRFSGSGSGTDFTLTISRLEPEDFAVYYCKYYPYPPSFTFGQGTKVEIK
For B1, in the test on cyBCMA, the “ka (1/Ms) cyBCMA @ 37° C.” value was 2.75e+06 M⁻¹ s⁻¹ and the “kd (1/s) cyBCMA @37° C.” value is 0.00409 s⁻¹. Further, in the test with hBCMA (human BCMA), the “ka (1/Ms) huBCMA @ 37° C.” value turned out to be 3.65e+06 M⁻¹ s⁻¹ and the “kd (1/s) huBCMA @37° C.” value amounted to 0.00208 s⁻¹.

B2: L3.PY/L3.KY/H3.TAQ: anti-BCMA antibody (antibody, V domains shown)
VH: EVQLLESGGGLVQPGGSLRLSCAASGFTFGSYAMTWVRQAPGKGLEWVSAISGSGGNTFYADSVKGRFTISRDNSKNTLYLQMNSLRAEDTAVYYCTRVSPIAAQMDYWGQGTLVTVSS
VL: EIVLTQSPGTLSLSPGERATLSCRASQSVSSSYLAWYQQKPGQAPRLLIYGASSRATGIPDRFSGSGSGTDFTLTISRLEPEDFAVYYCKYYPYPPSFTFGQGTKVEIK
B2: in the test on cyBCMA, the “ka (1/Ms) cyBCMA @ 37° C.” value turned out to be 1.81e+06 M⁻¹ s⁻¹ and the “kd (1/s) cyBCMA @37° C.” value amounted to 0.00192 s⁻¹. In the test with hBCMA (human BCMA), the “ka (1/Ms) huBCMA @ 37° C.” value is 2.79e+06 M⁻¹ s⁻¹ and the “kd (1/s) huBCMA @37° C.” value came out at 0.000649 s⁻¹.

B3: L3.PY/L3.KF/H2.YQ: anti-BCMA antibody (antibody, V domains shown)
VH: EVQLLESGGGLVQPGGSLRLSCAASGFTFGSYAMTWVRQAPGKGLEWVSAISYQGGNTFYADSVKGRFTISRDNSKNTLYLQMNSLRAEDTAVYYCARVSPIASGMDYWGQGTLVTVSS
VL: EIVLTQSPGTLSLSPGERATLSCRASQSVSSSYLAWYQQKPGQAPRLLIYGASSRATGIPDRFSGSGSGTDFTLTISRLEPEDFAVYYCKFYPYPPSFTFGQGTKVEIK
On to B3, for which, in the test on cyBCMA, the “ka (1/Ms) cyBCMA @ 37° C.” value is 1.41e+06 M⁻¹ s⁻¹ and the “kd (1/s) cyBCMA @37° C.” value came out at 0.00501 s⁻¹. For the same molecule, in the test with hBCMA (human BCMA), the “ka (1/Ms) huBCMA @ 37° C.” value amounted to 1.96e+06 M⁻¹ s⁻¹ and the “kd (1/s) huBCMA @37° C.” value was 0.00223 s⁻¹.

B4: L3.PY/L3.KF/H2.DY: anti-BCMA antibody (antibody, V domains shown)
VH: EVQLLESGGGLVQPGGSLRLSCAASGFTFGSYAMTWVRQAPGKGLEWVSAIDYSGGNTFYADSVKGRFTISRDNSKNTLYLQMNSLRAEDTAVYYCARVSPIASGMDYWGQGTLVTVSS
VL: EIVLTQSPGTLSLSPGERATLSCRASQSVSSSYLAWYQQKPGQAPRLLIYGASSRATGIPDRFSGSGSGTDFTLTISRLEPEDFAVYYCKFYPYPPSFTFGQGTKVEIK
For the molecule B4, in the test on cyBCMA, the “ka (1/Ms) cyBCMA @ 37° C.” value was 2.08e+06 M⁻¹ s⁻¹ and the “kd (1/s) cyBCMA @37° C.” value came out at 0.00368 s⁻¹. Moreover, in the test with hBCMA (human BCMA), the “ka (1/Ms) huBCMA @ 37° C.” value was 2.74e+06 M⁻¹ s⁻¹ and the “kd (1/s) huBCMA @37° C.” value is 0.00182 s⁻¹.

B5: L3.PY/L3.KY/H3.YA: anti-BCMA antibody (antibody, V domains shown)
VH: EVQLLESGGGLVQPGGSLRLSCAASGFTFGSYAMTWVRQAPGKGLEWVSAISGSGGNTFYADSVKGRFTISRDNSKNTLYLQMNSLRAEDTAVYYCARVSPIYAGMDYWGQGTLVTVSS
VL: EIVLTQSPGTLSLSPGERATLSCRASQSVSSSYLAWYQQKPGQAPRLLIYGASSRATGIPDRFSGSGSGTDFTLTISRLEPEDFAVYYCKYYPYPPSFTFGQGTKVEIK
With B5, in the test with cyBCMA, the “ka (1/Ms) cyBCMA @ 37° C.” value amounted to 1.84e+06 M⁻¹ s⁻¹ and the “kd (1/s) cyBCMA @37° C.” value is 0.00428 s⁻¹. In the test with hBCMA (human BCMA), the “ka (1/Ms) huBCMA @ 37° C.” value is 3.3e+06 M⁻¹ s⁻¹ and the “kd (1/s) huBCMA @37° C.” value was 0.000912 s⁻¹.
